Data from patent US20250066441A1.
Like-named read-outs stand apart in the source and are kept apart here.

Assays:
Assay in all cases: cell-based or functional assay
[1] = target: murine IL12 receptor complex (IL12Rβ1 and IL12Rβ2) on cells (murine) (UniProt Q60837)
[2] = target: murine IL12 receptor complex (IL12Rβ1 and IL12Rβ2) on cells (murine) (UniProt Q60837); remark: listed apart in the source
[3] = target: murine IL12 receptor complex (IL12Rβ1 and IL12Rβ2) on cells (murine) (UniProt Q60837); remark: listed apart in the source

Sequence of murine IL12 receptor complex (IL12Rβ1 and IL12Rβ2) on cells (murine) (Q60837 20-738, chain 1 of 2): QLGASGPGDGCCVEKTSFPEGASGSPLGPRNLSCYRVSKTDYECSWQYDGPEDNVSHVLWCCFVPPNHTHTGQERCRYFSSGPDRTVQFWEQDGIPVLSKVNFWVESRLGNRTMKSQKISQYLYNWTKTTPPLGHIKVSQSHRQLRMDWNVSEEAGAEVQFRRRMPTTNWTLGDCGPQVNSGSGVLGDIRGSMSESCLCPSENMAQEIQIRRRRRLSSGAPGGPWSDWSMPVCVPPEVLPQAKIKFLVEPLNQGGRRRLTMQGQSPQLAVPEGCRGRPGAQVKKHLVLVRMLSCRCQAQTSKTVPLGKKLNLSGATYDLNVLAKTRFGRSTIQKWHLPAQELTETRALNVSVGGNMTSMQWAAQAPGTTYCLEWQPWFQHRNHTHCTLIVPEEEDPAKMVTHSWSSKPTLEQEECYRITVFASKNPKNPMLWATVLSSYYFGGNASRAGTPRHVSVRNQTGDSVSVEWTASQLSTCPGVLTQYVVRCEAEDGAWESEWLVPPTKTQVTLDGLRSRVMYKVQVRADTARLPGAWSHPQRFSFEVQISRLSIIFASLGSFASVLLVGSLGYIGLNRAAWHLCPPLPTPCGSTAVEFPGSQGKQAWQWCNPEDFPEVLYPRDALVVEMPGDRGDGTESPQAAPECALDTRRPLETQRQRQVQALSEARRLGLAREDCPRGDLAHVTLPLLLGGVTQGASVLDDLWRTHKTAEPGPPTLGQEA
Sequence of murine IL12 receptor complex (IL12Rβ1 and IL12Rβ2) on cells (murine) (P97378 24-874, chain 2 of 2, further chain): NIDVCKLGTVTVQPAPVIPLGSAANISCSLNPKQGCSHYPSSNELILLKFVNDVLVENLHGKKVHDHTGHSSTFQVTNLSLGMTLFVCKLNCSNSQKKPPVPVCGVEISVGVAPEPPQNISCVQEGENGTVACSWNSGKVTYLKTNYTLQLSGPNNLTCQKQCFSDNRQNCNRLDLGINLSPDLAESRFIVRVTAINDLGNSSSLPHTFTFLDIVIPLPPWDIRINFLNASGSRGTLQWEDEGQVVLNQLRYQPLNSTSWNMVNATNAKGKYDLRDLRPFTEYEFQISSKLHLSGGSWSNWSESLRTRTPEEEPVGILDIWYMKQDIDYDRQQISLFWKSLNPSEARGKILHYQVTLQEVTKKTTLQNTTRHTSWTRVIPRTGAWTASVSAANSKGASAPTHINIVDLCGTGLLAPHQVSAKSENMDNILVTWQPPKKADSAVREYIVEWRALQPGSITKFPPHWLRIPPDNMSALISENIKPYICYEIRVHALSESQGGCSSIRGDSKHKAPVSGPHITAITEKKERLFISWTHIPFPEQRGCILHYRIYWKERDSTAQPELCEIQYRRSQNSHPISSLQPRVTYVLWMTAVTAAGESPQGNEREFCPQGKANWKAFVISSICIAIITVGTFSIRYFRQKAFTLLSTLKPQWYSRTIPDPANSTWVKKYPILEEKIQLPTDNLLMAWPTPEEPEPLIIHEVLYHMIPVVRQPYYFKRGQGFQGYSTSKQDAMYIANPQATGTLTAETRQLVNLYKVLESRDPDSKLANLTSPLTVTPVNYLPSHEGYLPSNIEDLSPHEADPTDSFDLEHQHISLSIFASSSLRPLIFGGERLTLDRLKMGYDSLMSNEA

B1: Recomb mIL12 (ligand, mouse)
chain 1: MWELEKDVYVVEVDWTPDAPGETVNLTCDTPEEDDITWTSDQRHGVIGSGKTLTITVKEFLDAGQYTCHKGGETLSHSHLLLHKKENGIWSTEILKNFKNKTFLKCEAPNYSGRFTCSWLVQRNMDLKFNIKSSSSSPDSRAVTCGMASLSAEKVTLDQRDYEKYSVSCQEDVTCPTAEETLPIELALEARQQNKYENYSTSFFIRDIIKPDPPKNLQMKPLKNSQVEVSWEYPDSWSTPHSYFSLKFFVRIQRKKEKMKETEEGCNQKGAFLVEKTSTEVQCKGGNVCVQAQDRYYNSSCSKWACVPCRVRS
chain 2: RVIPVSGPARCLSQSRNLLKTTDDMVKTAREKLKHYSCTAEDIDHEDITRDQTSTLKTCLPLELHKNESCLATRETSSTTRGSCLPPQKTSLMMTLCLGSIYEDLKMYQTEFQAINAALQNHNHQQIILDKGMLVAIDELMQSLNHNGETLRQKPPVGEADPYRVKMKLCILLHAFSTRVVTINRVMGYLSSA
- EC50 (M), STAT3-Luc reporter, CTLL2/STAT3-Luc cells [1]: 5.56e-11 M
- Fold induction at 6.25 nM, STAT3-Luc reporter, CTLL2/STAT3-Luc cells [1]: 12.2 fold
- Max fold induction, STAT3-Luc reporter, CTLL2/STAT3-Luc cells [1]: 12.4 fold
- EC50 (M), STAT3-Luc reporter, CTLL2/STAT3-Luc cells [2]: 3.46e-11 M
- Fold induction at 20 nM, STAT3-Luc reporter, CTLL2/STAT3-Luc cells [2]: 18.8 fold
- Max fold induction, STAT3-Luc reporter, CTLL2/STAT3-Luc cells [2]: 19.1 fold
- EC50 (M), STAT3-Luc reporter, CTLL2/STAT3-Luc cells [3]: 3.71e-10 M
- Max fold induction, STAT3-Luc reporter, CTLL2/STAT3-Luc cells [3]: 17.8 fold
